Patent US20060233832A1 (Rhein Biotech Gesellschaft Fur Neue Biotechnologische …, published 2006)

Target: Affinity-purified MHC class I molecules K^b with human β2m (mouse (H-2^b); human)

IVSPFIPL [K^b/S208-215-binding peptide 1 of HBsAgadw2 (IVSPFIPL)] showed an IC50 of 773 nM.
